Measured values as given in the Immune Epitope Database (IEDB).
pIC50, pKd: −log10 of the molar value.

Columns and labels:
HLA-A*26:01 = assay: IEDB peptide-MHC binding, purified MHC/competitive/fluorescence; filed as Kd, often an IC50 or EC50 that approximates it; ≥ and ≤ were set here for values at or beyond the usual limits of such assays
HLA-A*01:01 [1] = assay: as above
HLA-B*57:01 = assay: as above
HLA-B*15:17 = assay: as above
HLA-A*02:01 [2] = assay: as above
HLA-B*46:01 = assay: as above
HLA-B*15:01 [3] = assay: as above
HLA-B*51:01 = assay: as above
HLA-B*27:03 = assay: as above
HLA-A*69:01 = assay: as above
HLA-B*18:01 = assay: as above
HLA-B*39:01 = assay: as above
HLA-A*02:16 = assay: IEDB peptide-MHC binding, purified MHC/direct/fluorescence; filed as Kd, often an IC50 or EC50 that approximates it; ≥ and ≤ were set here for values at or beyond the usual limits of such assays
HLA-A*03:01 [4] = assay: as above
HLA-A*68:02 = assay: as above
HLA-A*24:03 = assay: as above
HLA-A*02:03 = assay: as above
HLA-A*02:12 = assay: as above
HLA-A*02:19 = assay: as above
HLA-A*01:01 [5] = assay: as above
HLA-A*23:01 = assay: as above
HLA-B*07:02 = assay: IEDB peptide-MHC binding, purified MHC/competitive/fluorescence; ≥ and ≤ were set here for values at or beyond the usual limits of such assays
HLA-B*08:01 = assay: as above
HLA-A*02:01 [6] = assay: as above; settings: source organism: Zaire ebolavirus
HLA-B*15:01 [7] = assay: as above
HLA-A*24:02 = assay: as above
HLA-A*03:01 [8] = assay: IEDB peptide-MHC binding, purified MHC/competitive/fluorescence; filed as Kd, often an IC50 or EC50 that approximates it; ≥ and ≤ were set here for values at or beyond the usual limits of such assays
HLA-A*02:11 = assay: IEDB peptide-MHC binding, purified MHC/direct/fluorescence; filed as Kd, often an IC50 or EC50 that approximates it; ≥ and ≤ were set here for values at or beyond the usual limits of such assays
HLA-B*15:01 [9] = assay: as above; settings: source organism: Reston ebolavirus - Reston
HLA-A*29:02 = assay: as above
HLA-A*11:01 = assay: as above; settings: source organism: Rickettsia sibirica 246
[10] = source organism: Escherichia coli
[11] = source organism: Influenza A virus (A/Memphis/1/1978(H1N1))
[12] = source organism: Influenza A virus H3N2
[13] = source organism: Vaccinia virus
[14] = source organism: Zaire ebolavirus
[15] = source organism: Sudan ebolavirus
[16] = source organism: Escherichia coli O157:H7 str. Sakai
[17] = source organism: Reston ebolavirus
[18] = source organism: Bacillus anthracis str. A0488
[19] = source organism: Orthohantavirus andesense
[20] = source organism: Rickettsia sibirica 246
[21] = source organism: Vaccinia virus Copenhagen

AAPLMQSLY
≤ 4.70: pKd (HLA-A*01:01 [1]; [10])
5.88: pKd (HLA-A*26:01; [10])

AVDADDSHF
≤ 4.70: pKd (HLA-B*57:01; [11]) | pKd (HLA-B*15:17; [11]) | pKd (HLA-A*02:01 [2]; [11]) | pKd (HLA-A*26:01; [11]) | pKd (HLA-B*46:01; [11]) | pKd (HLA-B*15:01 [3]; [11]) | pKd (HLA-B*51:01; [11]) | pKd (HLA-B*27:03; [11]) | pKd (HLA-A*69:01; [11]) | pKd (HLA-B*18:01; [11]) | pKd (HLA-B*39:01; [11]) | pKd (HLA-A*02:16; [12]) | pKd (HLA-A*03:01 [4]; [12]) | pKd (HLA-A*68:02; [12]) | pKd (HLA-A*24:03; [12]) | pKd (HLA-A*02:03; [12]) | pKd (HLA-A*02:12; [12]) | pKd (HLA-A*02:19; [12]) | pKd (HLA-A*01:01 [5]; source organism: Influenza A virus (A/New York/140/1999(H3N2))) | pKd (HLA-A*23:01; [12])

EPPLVRHAC
≤ 3.28: pIC50 (HLA-B*08:01; [13])
≤ 3.79: pIC50 (HLA-B*07:02; [13])

ERLAKLTEA
≤ 3.76: pIC50 (HLA-A*02:01 [6])
≤ 3.97: pIC50 (HLA-B*08:01; [14])

FLLIHQGMH
5.02: pIC50 (HLA-A*02:01 [6])
≤ 3.64: pIC50 (HLA-B*08:01; [14]) | pIC50 (HLA-B*15:01 [7]; [14])

FLLQRWGGT
5.20: pIC50 (HLA-B*08:01; [14])
5.08: pIC50 (HLA-A*02:01 [6])

FLRYLLFGI
≤ 3.00: pIC50 (HLA-B*07:02; [13])
≤ 3.71: pIC50 (HLA-B*08:01; [13])
4.78: pIC50 (HLA-A*24:02; [13])

GFPRCRYVH
4.91: pIC50 (HLA-B*08:01; [14])
5.91: pIC50 (HLA-A*24:02; [15])
≤ 4.08: pIC50 (HLA-B*07:02; [15])

GSQYVSLAY
7.49: pKd (HLA-A*01:01 [1]; [16])
5.35: pKd (HLA-A*03:01 [8]; [16])

GVPPKVVSY
≤ 4.70: pKd (HLA-B*57:01; [17]) | pKd (HLA-A*02:01 [2]; [17]) | pKd (HLA-A*26:01; [17]) | pKd (HLA-B*46:01; [17]) | pKd (HLA-B*51:01; [17]) | pKd (HLA-B*27:03; [17]) | pKd (HLA-A*69:01; [17]) | pKd (HLA-B*18:01; [17]) | pKd (HLA-B*39:01; [17]) | pKd (HLA-A*02:16; [17]) | pKd (HLA-A*03:01 [4]; [17]) | pKd (HLA-A*68:02; [17]) | pKd (HLA-A*02:11; [17]) | pKd (HLA-A*24:03; [17]) | pKd (HLA-A*02:03; [17]) | pKd (HLA-A*02:12; [17]) | pKd (HLA-A*02:19; [17]) | pKd (HLA-A*23:01; [17])
5.59: pKd (HLA-B*15:01 [9])
4.24: pIC50 (HLA-B*15:01 [7]; [15])

LLDNSMFTY
8.42: pKd (HLA-A*01:01 [1]; [18])

LSDAIFDDL
≤ 4.70: pKd (HLA-B*57:01; [14]) | pKd (HLA-B*15:17; [14]) | pKd (HLA-A*02:01 [2]; [14]) | pKd (HLA-A*26:01; [14]) | pKd (HLA-B*46:01; [14]) | pKd (HLA-B*15:01 [3]; [14]) | pKd (HLA-B*51:01; [14]) | pKd (HLA-B*27:03; [14]) | pKd (HLA-A*69:01; [14]) | pKd (HLA-B*18:01; [14]) | pKd (HLA-B*39:01; [14]) | pKd (HLA-A*02:16; [14]) | pKd (HLA-A*03:01 [4]; [14]) | pKd (HLA-A*68:02; [14]) | pKd (HLA-A*02:11; [14]) | pKd (HLA-A*24:03; [14]) | pKd (HLA-A*02:03; [14]) | pKd (HLA-A*02:12; [14]) | pKd (HLA-A*02:19; [14]) | pKd (HLA-A*23:01; [14]) | pKd (HLA-A*29:02; [14])
5.73: pKd (HLA-A*01:01 [5]; source organism: Sudan ebolavirus - Maleo (1979))

STGKSIKFK
7.83: pKd (HLA-A*03:01 [8]; [19])
≤ 4.70: pKd (HLA-B*57:01; [19]) | pKd (HLA-A*02:01 [2]; [19]) | pKd (HLA-A*26:01; [19]) | pKd (HLA-B*46:01; [19]) | pKd (HLA-B*15:01 [3]; [19]) | pKd (HLA-B*51:01; [19]) | pKd (HLA-B*27:03; [19]) | pKd (HLA-A*69:01; [19]) | pKd (HLA-B*18:01; [19]) | pKd (HLA-B*39:01; [19]) | pKd (HLA-A*02:16; [19]) | pKd (HLA-A*68:02; [19]) | pKd (HLA-A*02:11; [19]) | pKd (HLA-A*24:03; [19]) | pKd (HLA-A*02:03; [19]) | pKd (HLA-A*02:12; [19]) | pKd (HLA-A*02:19; [19]) | pKd (HLA-A*29:02; [19])

SVANIDRIK
8.22: pKd (HLA-A*11:01)
≤ 4.70: pKd (HLA-B*57:01; [20]) | pKd (HLA-B*15:17; [20]) | pKd (HLA-A*02:01 [2]; [20]) | pKd (HLA-A*26:01; [20]) | pKd (HLA-B*46:01; [20]) | pKd (HLA-B*51:01; [20]) | pKd (HLA-B*27:03; [20]) | pKd (HLA-A*69:01; [20]) | pKd (HLA-B*18:01; [20]) | pKd (HLA-B*39:01; [20]) | pKd (HLA-A*02:16; [20]) | pKd (HLA-A*03:01 [4]; [20]) | pKd (HLA-A*68:02; [20]) | pKd (HLA-A*02:11; [20]) | pKd (HLA-A*24:03; [20]) | pKd (HLA-A*02:03; [20]) | pKd (HLA-A*02:12; [20]) | pKd (HLA-A*02:19; [20]) | pKd (HLA-A*23:01; [20])

TLDSEDGLY
8.80: pKd (HLA-A*01:01 [1]; [18])

YANCSSISI
≤ 3.76: pIC50 (HLA-B*07:02; [21])
≤ 2.97: pIC50 (HLA-B*08:01; [21])
5.88: pIC50 (HLA-A*24:02; [21])
4.61: pIC50 (HLA-B*15:01 [7]; [21])

YRNKPSIAT
≤ 3.89: pIC50 (HLA-B*08:01; [13])
